# Test results as given in US20260055143A1, “HIGH AFFINITY VARIANTS OF SH2 DOMAINS” (Axoiya Inc., priority 2023, published 2026).
# Numbering of substitutions follows the chain as printed.
# B1: sFes^4, superbinder Fes SH2 domain variant (designed binder)
# chain: MKIEEHHHHHHSSGKLGLNDIFEAQKIEWHESSGEDLYFQSGTTMDDYKDDDDKGGSEVQKPLHEQLWYHGAIPRAEVAELLVHSGDFLVRESQGRKVYVLSVLWDGLPRHFIIQSLDNLYRLEGEGFPSIPLLIDHLLSTQQPLTKKSGVVLHRAVPSR
# B2: sFes^5, superbinder Fes SH2 domain variant (designed binder)
# chain: B1 chain with Q94I, G95S, R96K, K97Q, V98G, I113L
# B3: sFes^6, superbinder Fes SH2 domain variant (designed binder)
# chain: B1 chain with L89I, G95T, R96Y, K97P, V98G
# B4: sFes^1 (SuperFes), superbinder Fes SH2 domain variant (designed binder)
# chain: B1 chain with S93G, G95S, R96Q, K97P, V98D
# B5: sFes^2, superbinder Fes SH2 domain variant (designed binder)
# chain: B1 chain with S93R, G95R, R96K, K97Q, V98E
# B6: sFes^3, superbinder Fes SH2 domain variant (designed binder)
# chain: B1 chain with Q94P, G95R, R96I, K97Q, V98E
# Biological target: pTyr-containing peptide (pEZ) derived from Ezrin, PPV{pTyr}EPVS
# Assay: fluorescence polarization, purified SH2 domain with fluorescein-labelled ezrin phosphopeptide
row,Binder,IC50 [nM]
1,B1,17.4
2,B2,39.7
3,B3,48
4,B4,2.7
5,B5,3.9
6,B6,14

# Biological target: pTyr-containing peptide (pEZ) derived from Ezrin, PPV{pTyr}EPVS
# Assay: phage ELISA, phage-displayed clone on immobilized peptide
row,Binder,binding signal for pEZ over that for the unphosphorylated peptide EZ [fold]
1,B1,10
2,B2,10
3,B3,10
4,B4,10
5,B5,10
6,B6,10

# Biological target: pTyr-containing peptide (pEZ) derived from Ezrin, PPV{pTyr}EPVS
# Assay: fluorescence polarization; fold change over wt Fes SH2
row,Binder,Fold Change [fold]
1,B1,77
2,B2,33.8
3,B3,28
4,B4,493
5,B5,344
6,B6,95.9
